Measurements reported in patent publication US10463752B2, “Protein polymer gold nanoparticle hybrid materials for small molecule delivery” (New York University, priority 2016, dated 2019).
“And” between values parts separate entries of the source, which are not always exact repeats. Equal values may be shown once. Marks after values point to notes of the source that are not given here.

What was measured:
[1] = system: MCF7 human breast cancer cells; experiment: Curcumin uptake in MCF7 cells by fluorescence microscopy; format: cell-based; settings: complexed with curcumin
Protocol: MCF7 human breast cancer cells were obtained from ATCC and maintained at 37° C., 5% CO2 as monolayer cultures in Dulbecco's modified Eagle's medium (DMEM with high glucose containing phenol red) supplemented with 10% (v/v) fetal bovine serum (FBS), gentamicin (50 μg/mL), 100 U penicillin/100 μg/mL streptomycin. Because the loading capacities of curcumin for P•GNP nanocomposites are much larger than those of the proteins in the absence of GNP we prepared two corresponding curcumin controls that represented the bound curcumin levels in P•G NPs and protein polymers alone (Table 2). To avoid any uptake of unbound curcumin by the cells directly, we limited the curcumin amount that is equivalent to the loading capacity of 26 μM of protein samples in 50 mM sodium phosphate buffer, pH 7.4 and allowed to bind for 2 hours at room temperature prior to cell culture studies.
Multiple sets of experiments were performed to record curcumin uptake by image acquisition using FITC filter (Em: 520 nm) under fluorescence microscopy and direct measurement of curcumin uptake in cell extractions. Cells were grown directly on 24-well culture plates (8×10^4 cells/well) for cell extraction or on cover slips for microscopy. After 24 hours of cell plating, cells were treated for 4 or 24 hours with different combination of proteins with or without GNP and/or curcumin. For all the treatments, the total volume of samples with DMEM in 24-well plates was kept constant at 300 μL with proteins prepared at 10 μM concentrations. The ratio of sample amount to number of cells was also kept constant. The results are representative of two such independent sets of experiments.
For fluorescent imaging of curcumin uptake, cells on coverslips were fixed with 300 μL 4% paraformaldehyde solution in DPBS for 20 minutes at room temperature on a plate rocker. […] Cells were viewed using fluorescence microscope IX71 (Olympus) using DAPI (for cell nuclei) and FITC (for curcumin uptake) at 60× magnification while keeping the exposure time for the FITC images constant at 200 milliseconds.

[2] = system: MCF7 human breast cancer cells; experiment: MTS cell viability assay; settings: absorbance at 490 nm
Protocol: (§1) Cell viability measurements were carried out using a CellTiter 96® Aqueous One solution kit (Promega) in a 96-well plate, seeded 1×10^4 cells/well. After 24 hours, the cells were treated for 4 hours or 24 hours with protein polymers and P•G NPs with and without curcumin along with control treatments of curcumin alone and media alone. After the treatment periods, 20 μL [3-(4,5-dimethylthiazol-2-yl)-5-(3-carboxymethoxyphenyl)-2-(4-sulfophenyl)-2H-tetrazolium (MTS) was added to each well, followed by incubation at 37° C. for 3 hours. The plate was centrifuged for 3 minutes at 2500 rpm and then subjected to absorbance measurements at 490 nm (Tables 3 and 4).

[3] = Curcumin loading capacity (small molecule loading); format: physicochemical; settings: ratio of curcumin to protein or P•G NP; 2 hours incubation at room temperature
Protocol: Curcumin (6.5 nmol final concentration from 3 mM stock solution in HPLC grade methanol) was incubated with 1.3 nmol of CE1-His6, E1C-His6, CE1-His6•GNP and E1C-His6•GNP at room temperature for 2 hours and loaded onto Bio-Rad Spin6 columns packed with Sephadex G-25 medium beads 0.5 cm high. Bound protein polymer•curcumin complexes (in the presence or absence of GNP) were eluted by size, washed 3 times in 50 μL sodium phosphate buffer, followed by centrifugation for 5 min at 14000 rpm. The beads containing unbound curcumin were collected separately and resuspended back to buffer for solvent extraction. Both bound and unbound curcumin were extracted by adding 150 μL ethyl acetate and quantitatively determined by measuring absorbance at 416 nm. Absorbance was measured in a Hellma 105.201-QS type cuvette (10 mm light path, 100 μL sample) on SpectraMax M2. This binding study was performed on at least three different protein sample preparations to calculate the average loading capacities with errors represented as the standard deviation of the three trials.

[4] = system: MCF7 human breast cancer cells
Protocol: as §1

[5] = Curcumin release over time; format: physicochemical; settings: by 8.25 hrs, room temperature, 50 mM phosphate buffer pH 7.4
Protocol: Release of curcumin from CE1-His6, E1C-His6, CE1-His6•GNP and E1C-His6•GNP was then investigated. Curcumin (26 nmol) was added to 200 μL of 26 μM (5.2 nmol) protein sample. After 2 hours of incubation at room temperature, the solution was adjusted to contain a final concentration of 0.5 M NaCl. The protein polymer•curcumin complex (in the presence or absence of GNP) were incubated at 45° C. (well above the TO for 30 min and centrifuged to separate protein polymer•curcumin complex from excess curcumin. The pellets were resuspended in 200 μL of 50 mM phosphate buffer, pH 7.4 and kept at room temperature in the dark for release. After 10 min, the suspensions were centrifuged and the supernatant was removed and used for extraction assessment of released curcumin. This resuspension-incubation-spin-release cycle was repeated for the next eight hours at the following time points: 10, 25, 55, 85, 135, 195, 255, 315 and 495 min. Release study was performed on two different protein sample preparations to obtain the averaged release profile. Error bars on the release data represented standard error of the two sample preparations.

[6] = Turbidometry, inverse temperature transition (Tt); format: physicochemical; settings: midpoint of turbidity at 800 nm
Protocol: The turbidometry, or inverse temperature transition (Tt), was determined via UV-Vis Spectrophotometer Cary-50 (Agilent Technology) equipped with TC 125 temperature controller (Quantum Northwest) in Type 21 quartz cuvette with 10 mm path length (Buck Science) by monitoring the change in turbidity at 800 nm from 25° C. to 80° C. at a rate of 1° C./min. Protein stock solutions for Tt measurement were prepared in 0.2 mg/mL (or 14.3 μM and 14.4 μM for CE1-His6 and E1C-His6, respectively) in 10 mM sodium phosphate buffer, pH 8.0. In order to bring Tt value of all the samples into instrument operation range, highly concentrated NaCl solution was added prior to Tt measurement (Table 1). Measurements were performed on at least two different protein sample preps to calculate the average Tt. The Tt was determined at the midpoint of the normalized turbidity.

[7] = protein polymer without GNP; data from Haghpanah et al., Mol. Biosys. 2010; cited from earlier work

COc1cc(/C=C/C(=O)CC(=O)/C=C/c2ccc(O)c(OC)c2)ccc1O [curcumin]
curcumin uptake visualized by fluorescence (FITC channel) [1]: did not show any uptake | Abs. (MTS Assay) ([2]; 4 Hour Treatment, listed as CCM1): 2.039 ± 0.00 and 1.999 ± 0.05 | Abs. (MTS Assay) ([2]; 4 Hour Treatment, listed as CCM2): 2.044 ± 0.01 and 2.025 ± 0.02 | Abs. (MTS Assay) ([2]; 24 Hour Treatment, listed as CCM1): 1.974 ± 0.01 and 2.034 ± 0.02 | Abs. (MTS Assay) ([2]; 24 Hour Treatment, listed as CCM2): 1.98 ± 0.04 and 1.999 ± 0.01

B1: CE1-His6: protein diblock polymer with N-terminal hexahistidine tag, COMPcc coiled-coil C domain then elastin-like E1 domain (SEQ ID NO: 13) (protein)
chain: MRGSHHHHHHGSACELAATATATATATATAACGDLAPQMLRELQETNAALQDVRELLRQQVKEITFLKNTVMESDASGLQAATATATATATATAVDKPIAASAVPGVGVPGVGVPGFGVPGVGVPGVGVPLEGSGTGAKLN
CCM/P molar binding ratio [3]: 0.40 ± 0.06 | curcumin uptake visualized by fluorescence (FITC channel) [1]: uptake albeit substantially less than the P•G NPs | cytotoxicity (MTS assays) [4]: neither the protein polymer nor P•G NPs s exhibited cytotoxicity | release of free curcumin [5]: 77.0% | Tt ([6]; 0.1621 mg/mL protein, 0.946M NaCl): 55.0 ± 0.8 °C | Size of protein particles [7]: 26.0 ± 3.0^a nm

B2: E1C-His6: protein diblock polymer with N-terminal hexahistidine tag, elastin-like E1 domain then COMPcc coiled-coil C domain (SEQ ID NO: 14) (protein)
chain: MRGSHHHHHHGSKPIAASAVPGVGVPGVGVPGFGVPGVGVPGVGVPLEGSELAATATATATATATAACGDLAPQMLRELQETNAALQDVRELLRQQVKEITFLKNTVMESDASGLQAATATATATATATAVDLQPS
CCM/P molar binding ratio [3]: 0.41 ± 0.10 | curcumin uptake visualized by fluorescence (FITC channel) [1]: uptake albeit substantially less than the P•G NPs | cytotoxicity (MTS assays) [4]: neither the protein polymer nor P•G NPs s exhibited cytotoxicity | release of free curcumin [5]: 78.8% | Tt ([6]; 0.1818 mg/mL protein, 0.45M NaCl): 33.8 ± 2.2 °C | Size of protein particles [7]: 27.9 ± 3.7^a nm
